Assay results reported in paper PMC8857481.

Molecular target: FLAG-METTL5-G61D (human) (UniProt Q9NRN9)
Test: co-IP; anti-FLAG M2 beads in clarified lysate of transfected HeLa cells, 1 h at 4 °C; 50 mM Tris pH 7.4, 150 mM NaCl, 10% glycerol, 1.5 mM MgCl2, 0.5 mM EDTA, 0.2% NP-40, 1 mM DTT; three washes; Western blot with anti-FLAG and anti-TRMT112

Chain of UniProt Q9NRN9 (Q9NRN9 whole entry G61D): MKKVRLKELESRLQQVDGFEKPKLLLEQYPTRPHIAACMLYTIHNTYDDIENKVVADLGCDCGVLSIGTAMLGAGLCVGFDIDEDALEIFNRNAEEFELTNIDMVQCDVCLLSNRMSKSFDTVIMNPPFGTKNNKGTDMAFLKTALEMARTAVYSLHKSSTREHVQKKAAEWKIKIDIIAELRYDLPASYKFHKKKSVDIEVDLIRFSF

TRMT112 bound relative to that bound to FLAG-METTL5-WT: 5 to 15%
B1: TRMT112 (natural protein)
chain: MKLLTHNLLSSHVRGVGSRGFPLRLQATEVRICPVEFNPNFVARMIPKVEWSAFLEAADNLRLIQVPKGPVEGYEENEEFLRTMHHLLLEVEVIEGTLQCPESGRMFPISRGIPNMLLSEEETES
